Target: MUC1 mucin (tumor‐associated MUC1) on human cancer cells (human (endogenous in T47D, A549, MCF-7)) (UniProt P15941)
UniProt P15941, sequence (P15941 24-1255, stated change not applied): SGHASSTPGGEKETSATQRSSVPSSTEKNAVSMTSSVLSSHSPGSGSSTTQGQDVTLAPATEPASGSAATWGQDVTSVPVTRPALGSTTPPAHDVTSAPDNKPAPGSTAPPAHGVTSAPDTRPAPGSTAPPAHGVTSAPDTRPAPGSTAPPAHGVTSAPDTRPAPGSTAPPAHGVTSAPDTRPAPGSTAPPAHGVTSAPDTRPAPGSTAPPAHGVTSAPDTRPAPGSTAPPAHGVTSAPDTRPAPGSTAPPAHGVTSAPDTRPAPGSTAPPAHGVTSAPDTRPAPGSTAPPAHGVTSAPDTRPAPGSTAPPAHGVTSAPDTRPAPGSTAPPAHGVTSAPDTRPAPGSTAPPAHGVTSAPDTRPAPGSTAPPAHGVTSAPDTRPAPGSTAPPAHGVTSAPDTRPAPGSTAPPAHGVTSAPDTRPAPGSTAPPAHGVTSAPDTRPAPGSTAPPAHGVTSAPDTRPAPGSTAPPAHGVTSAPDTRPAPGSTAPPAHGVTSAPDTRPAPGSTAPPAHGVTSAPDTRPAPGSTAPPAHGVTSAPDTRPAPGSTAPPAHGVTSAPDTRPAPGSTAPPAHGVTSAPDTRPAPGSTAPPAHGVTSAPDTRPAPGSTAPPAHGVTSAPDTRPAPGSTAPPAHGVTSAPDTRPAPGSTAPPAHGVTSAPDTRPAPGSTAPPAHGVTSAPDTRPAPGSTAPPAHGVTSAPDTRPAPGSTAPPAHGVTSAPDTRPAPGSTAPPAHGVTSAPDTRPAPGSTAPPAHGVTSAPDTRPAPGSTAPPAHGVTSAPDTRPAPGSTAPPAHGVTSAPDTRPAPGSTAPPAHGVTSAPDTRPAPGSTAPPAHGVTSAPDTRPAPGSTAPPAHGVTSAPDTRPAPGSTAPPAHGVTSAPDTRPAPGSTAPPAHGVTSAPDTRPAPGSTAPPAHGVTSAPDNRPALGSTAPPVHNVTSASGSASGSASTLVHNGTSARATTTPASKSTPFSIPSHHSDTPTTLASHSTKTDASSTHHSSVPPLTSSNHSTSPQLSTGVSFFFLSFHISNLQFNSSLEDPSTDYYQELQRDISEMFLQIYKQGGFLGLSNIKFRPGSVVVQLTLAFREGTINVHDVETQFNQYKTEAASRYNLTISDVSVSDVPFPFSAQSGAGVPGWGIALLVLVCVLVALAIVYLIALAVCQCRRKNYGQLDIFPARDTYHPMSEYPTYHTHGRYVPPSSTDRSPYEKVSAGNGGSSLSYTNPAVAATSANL

B1: recombinant anti‐MUC1 nanobody (VHH)
VHH: EVQLVESGGGLVQPGGSLRLSCAASGFTFDDYGMSWVRQAPGKWLEWVSDISWNGGSTYYADSVKGRFTISRDNAENTLYLQMNSLKPDDTAVYYCAKMGEGGWGANDYWGQGTQVTVSS
- MTT viability assay, A549 cells, 48 h, IC50 of growth inhibition: 14.3 nM
- MTT viability assay, MCF7 cells, 48 h, IC50 of growth inhibition: 7 nM
- MTT viability assay, MDA‐MB‐231 cells, 48 h, IC50 of growth inhibition: 10 nM
- MTT viability assay, SKBR3 cells, IC50 of growth inhibition: 4.16 nM
- MTT viability assay, SW742 cells, 48 h, IC50 of growth inhibition: 7.2 nM
- MTT viability assay, T47D cells, 48 h, IC50 of growth inhibition: 1.2 nM

From paper PMC8763658
